How the values were obtained:
[1] = molecular target: full-length human fibronectin (UniProt P02751); assay: SPR; Biacore T200; FN amine-coupled to a CM5 chip (1000 RU and 5000 RU); α^UpaB 0.8–100 µM injected; 25 °C, PBS-T (PBS pH 7.4, 0.05% Tween 20); steady-state affinity model; apparent
[2] = molecular target: full-length human fibronectin (UniProt P02751); assay: ELISA; details: parent: est. 0.29; read off a plot

Chain of full-length human fibronectin (P02751 32-2477): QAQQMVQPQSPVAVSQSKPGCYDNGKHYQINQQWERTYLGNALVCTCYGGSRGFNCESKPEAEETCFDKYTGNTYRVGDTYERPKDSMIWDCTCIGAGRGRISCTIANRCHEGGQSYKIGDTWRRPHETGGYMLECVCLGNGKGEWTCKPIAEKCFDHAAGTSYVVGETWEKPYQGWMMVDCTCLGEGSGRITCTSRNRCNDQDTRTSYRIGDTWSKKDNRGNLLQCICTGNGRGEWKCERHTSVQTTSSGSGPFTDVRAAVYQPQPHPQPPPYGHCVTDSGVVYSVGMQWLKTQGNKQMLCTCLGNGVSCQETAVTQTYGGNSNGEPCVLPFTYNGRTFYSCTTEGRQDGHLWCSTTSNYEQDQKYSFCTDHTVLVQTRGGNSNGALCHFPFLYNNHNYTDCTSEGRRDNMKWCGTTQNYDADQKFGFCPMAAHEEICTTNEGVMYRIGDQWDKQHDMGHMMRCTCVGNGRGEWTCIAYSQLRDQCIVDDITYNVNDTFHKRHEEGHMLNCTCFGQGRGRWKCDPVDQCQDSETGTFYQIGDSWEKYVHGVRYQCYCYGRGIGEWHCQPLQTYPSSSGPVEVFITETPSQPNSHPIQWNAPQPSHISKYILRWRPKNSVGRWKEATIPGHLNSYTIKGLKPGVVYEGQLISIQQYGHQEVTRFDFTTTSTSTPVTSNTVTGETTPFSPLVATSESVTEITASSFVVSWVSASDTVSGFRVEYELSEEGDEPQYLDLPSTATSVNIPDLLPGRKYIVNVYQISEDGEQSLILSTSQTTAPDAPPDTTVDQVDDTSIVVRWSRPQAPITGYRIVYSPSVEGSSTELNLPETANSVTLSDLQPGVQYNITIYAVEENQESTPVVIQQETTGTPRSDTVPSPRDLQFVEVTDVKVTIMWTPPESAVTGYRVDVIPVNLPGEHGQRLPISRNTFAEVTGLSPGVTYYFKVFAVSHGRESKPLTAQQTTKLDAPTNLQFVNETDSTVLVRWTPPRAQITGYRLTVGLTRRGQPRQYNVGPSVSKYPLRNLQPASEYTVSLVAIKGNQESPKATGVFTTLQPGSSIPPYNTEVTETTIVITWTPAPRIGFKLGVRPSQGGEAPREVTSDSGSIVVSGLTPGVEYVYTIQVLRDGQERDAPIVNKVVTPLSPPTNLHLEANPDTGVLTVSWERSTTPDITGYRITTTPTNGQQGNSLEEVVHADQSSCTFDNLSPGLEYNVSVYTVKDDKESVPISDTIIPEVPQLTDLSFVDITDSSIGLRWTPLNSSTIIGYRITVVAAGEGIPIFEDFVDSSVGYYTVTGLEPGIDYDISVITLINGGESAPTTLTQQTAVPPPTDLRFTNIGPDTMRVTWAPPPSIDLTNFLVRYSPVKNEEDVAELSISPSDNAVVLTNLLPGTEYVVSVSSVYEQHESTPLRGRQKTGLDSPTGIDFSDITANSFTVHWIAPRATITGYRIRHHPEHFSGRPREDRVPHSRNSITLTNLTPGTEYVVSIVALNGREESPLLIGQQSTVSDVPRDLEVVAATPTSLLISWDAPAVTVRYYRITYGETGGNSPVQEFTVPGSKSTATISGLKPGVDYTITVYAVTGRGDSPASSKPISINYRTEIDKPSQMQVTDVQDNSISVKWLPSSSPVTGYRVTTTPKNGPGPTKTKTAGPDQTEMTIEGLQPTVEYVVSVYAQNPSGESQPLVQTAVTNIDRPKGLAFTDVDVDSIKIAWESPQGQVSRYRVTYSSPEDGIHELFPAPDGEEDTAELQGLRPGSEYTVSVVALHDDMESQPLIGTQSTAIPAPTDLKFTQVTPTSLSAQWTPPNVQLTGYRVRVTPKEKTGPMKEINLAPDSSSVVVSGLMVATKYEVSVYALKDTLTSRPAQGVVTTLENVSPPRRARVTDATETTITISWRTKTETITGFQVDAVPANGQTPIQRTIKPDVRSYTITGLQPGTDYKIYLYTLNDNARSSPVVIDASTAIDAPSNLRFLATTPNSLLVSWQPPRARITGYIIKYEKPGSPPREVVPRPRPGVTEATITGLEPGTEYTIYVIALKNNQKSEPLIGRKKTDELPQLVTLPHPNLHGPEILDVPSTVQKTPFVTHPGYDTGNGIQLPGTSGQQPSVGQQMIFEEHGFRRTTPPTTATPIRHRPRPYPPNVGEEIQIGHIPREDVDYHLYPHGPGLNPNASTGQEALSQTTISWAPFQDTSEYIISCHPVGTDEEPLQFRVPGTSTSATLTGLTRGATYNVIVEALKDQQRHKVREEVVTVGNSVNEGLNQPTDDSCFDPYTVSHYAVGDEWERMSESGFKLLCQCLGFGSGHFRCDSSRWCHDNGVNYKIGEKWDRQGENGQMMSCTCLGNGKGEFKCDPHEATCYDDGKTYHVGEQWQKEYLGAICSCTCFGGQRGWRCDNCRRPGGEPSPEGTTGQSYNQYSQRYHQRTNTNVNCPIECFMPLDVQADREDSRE

Substance | Kd [1] | response (Absorbance at 405 nm) [2]
UpaB α-domain (α^UpaB), residues 38–500, from UPEC CFT073 (domain or fragment; other documents disagree on this pair) | 45.2 µM | –
UpaB α-domain (α^UpaB), residues 38–500, from UPEC CFT073 F101A; Y130A; Y187A; F195A; L201G; L202G; Y260A | – | 0.21
UpaB α-domain (α^UpaB), residues 38–500, from UPEC CFT073 N116A; D119A; N146A; N175A; D217A; K245A; D246A; D281A; R310A; D336A | – | 0.039
UpaB α-domain (α^UpaB), residues 38–500, from UPEC CFT073 E165A; N189A; Q197A; N200A; Q203A; K256A; N316A | – | 0.33
UpaB α-domain (α^UpaB), residues 38–500, from UPEC CFT073 E103A; D138A; E165A; E226A | – | 0.27

From article PMC6488583
